Measurements from ChEMBL document CHEMBL1150988, “-lactam-recognizing enzymes exhibit different structural specificity in acyclic amide and ester substrates: a starting point in -lactamase evolution?” (Bioorg Med Chem Lett, 1994).

Columns and labels:
Details in all cases: enterococcus cloacae
[1] = substrate: CC(=O)NCCCC[C@H](NC(C)=O)C(=O)NCC(=O)O[C@H](C)C(=O)O; experiment: (§1) Km against P99 beta-lactamase
[2] = substrate: CC(=O)NCCCC[C@H](NC(C)=O)C(=O)NCC(=O)S[C@H](C)C(=O)O; experiment: as §1
[3] = substrate: CC(=O)NCCCC[C@H](NC(C)=O)C(=O)N[C@@H](C)C(=O)O[C@H](C)C(=O)O; experiment: as §1
[4] = substrate: C[C@@H](OC(=O)CNC(=O)Cc1ccccc1)C(=O)O; experiment: as §1
[5] = substrate: C[C@@H](SC(=O)CNC(=O)Cc1ccccc1)C(=O)O; experiment: as §1
[6] = substrate: C[C@H](NC(=O)Cc1ccccc1)C(=O)O[C@H](C)C(=O)O; experiment: as §1

B1: Beta-lactamase (Enterobacter cloacae), P05364 (protein)
chain: MMRKSLCCALLLGISCSALATPVSEKQLAEVVANTITPLMKAQSVPGMAVAVIYQGKPHYYTFGKADIAANKPVTPQTLFELGSISKTFTGVLGGDAIARGEISLDDAVTRYWPQLTGKQWQGIRMLDLATYTAGGLPLQVPDEVTDNASLLRFYQNWQPQWKPGTTRLYANASIGLFGALAVKPSGMPYEQAMTTRVLKPLKLDHTWINVPKAEEAHYAWGYRDGKAVRVSPGMLDAQAYGVKTNVQDMANWVMANMAPENVADASLKQGIALAQSRYWRIGSMYQGLGWEMLNWPVEANTVVEGSDSKVALAPLPVAEVNPPAPPVKASWVHKTGSTGGFGSYVAFIPEKQIGIVMLANTSYPNPARVEAAYHILEALQ
With B1 as the protein, how does the Km [1] read?
The Km was 36.1 mM.

And the Km [2]?
Its Km is 6.7 mM.

What about the Km [3] of the same protein?
Its Km is 26.9 mM.

What about the Km [4] of the same protein?
Its Km is 8.1 mM.

And the Km [5]?
The Km was 3.3 mM.

What about the Km [6] of the same protein?
Its Km is 23.4 mM.
